Patent publication EP4818204A1 (Nanjing Leads Biolabs Co., Ltd., dated 2026)

Tests used:
[1] = biological target: human AMH protein (human) (UniProt P03971); experiment: ELISA, coated protein, antibody at 4 µg/mL
[2] = biological target: human GDF8 protein (human) (UniProt O14793); experiment: ELISA, coated protein, antibody at 4 µg/mL
human FcRn protein = biological target: T1, human FcRn protein (human, UniProt P55899 24-297); experiment: BLI (Octet RED96e), FcRn on SA sensor, antibody as analyte, binding and dissociation at pH 6.0, 1:1 model
T1 construct: Bought, loaded on a streptavidin (SA) sensor; FcRn is by nature a heterodimer with beta-2-microglobulin
T1 sequence (P55899 24-297 limits assumed, form in doubt): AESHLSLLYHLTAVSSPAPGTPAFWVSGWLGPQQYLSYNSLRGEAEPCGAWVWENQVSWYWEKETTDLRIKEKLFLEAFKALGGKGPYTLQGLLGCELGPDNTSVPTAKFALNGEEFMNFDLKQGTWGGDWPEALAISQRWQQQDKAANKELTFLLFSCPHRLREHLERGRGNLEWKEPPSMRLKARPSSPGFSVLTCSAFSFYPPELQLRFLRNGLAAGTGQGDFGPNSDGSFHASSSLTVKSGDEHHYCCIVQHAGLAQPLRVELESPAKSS

human Activin A protein = biological target: T2, human Activin A protein (human, UniProt P08476 311-426); experiment: ELISA, coated protein, antibody at 4 µg/mL
T2 construct: Bought; Activin A is by nature a dimer of inhibin beta A chains
T2 sequence (looked up): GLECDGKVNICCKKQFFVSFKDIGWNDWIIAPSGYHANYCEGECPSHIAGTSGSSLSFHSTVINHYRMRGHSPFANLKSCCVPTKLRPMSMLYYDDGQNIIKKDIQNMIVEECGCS

human GDF1 protein = biological target: T3, human GDF1 protein (human, UniProt P27539 254-372, limits assumed); experiment: ELISA, coated protein, antibody at 4 µg/mL
T3 construct: Bought
T3 sequence (looked up): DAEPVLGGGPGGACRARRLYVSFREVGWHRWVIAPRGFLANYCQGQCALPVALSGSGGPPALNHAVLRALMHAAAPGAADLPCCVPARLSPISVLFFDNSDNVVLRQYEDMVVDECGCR

B1: Hu19C4C7 (antibody, human IgG1, kappa)
heavy: QVQLVQSGAEVKKPGSSVKVSCKASGYSFTGYIMNWVRQAPGQSLEWMGDIDPYYGGPNYNQKFQGRVTITVDKSTSTAYMELSSLRSEDTAVYYCSRRDYNYGSFAYWGQGTLVTVSSASTKGPSVFPLAPSSKSTSGGTAALGCLVKDYFPEPVTVSWNSGALTSGVHTFPAVLQSSGLYSLSSVVTVPSSSLGTQTYICNVNHKPSNTKVDKKVEPKSCDKTHTCPPCPAPEAAGAPSVFLFPPKPKDTLMISRTPEVTCVVVDVSHEDPEVKFNWYVDGVEVHNAKTKPREEQYNSTYRVVSVLTVLHQDWLNGKEYKCKVSNKALPAPIEKTISKAKGQPREPQVYTLPPSREEMTKNQVSLTCLVKGFYPSDIAVEWESNGQPENNYKTTPPVLDSDGSFFLYSKLTVDKSRWQQGNVFSCSVMHEALHNHYTQKSLSLSPGK
light: QIVLTQSPATLSLSPGERATLSCRASSSVNYMHWYQQKPGQAPRPLIYATSNLATGIPARFSGSGSGTDYTLTISSLEPEDFAVYYCQQWSDNPPTFGQGTKLEIKRTVAAPSVFIFPPSDEQLKSGTASVVCLLNNFYPREAKVQWKVDNALQSGNSQESVTEQDSKDSTYSLSSTLTLSKADYEKHKVYACEVTHQGLSSPVTKSFNRGEC
notes: Humanized form of murine 19C4C7; human IgG1 constant region with L234A, L235A, G237A and kappa light chain constant region; also called hu19C4C7-IgG1-mut(L234A,L235A,G237A)
With B1 the OD value (OD 450 nm-620 nm) [1] was 0.0887, the OD value (OD 450 nm-620 nm) [2] was 0.0505 and the Kd (human FcRn protein) was 7.41 nM. For the same binder, the koff (human FcRn protein) was 0.0146 s⁻¹, the kon (human FcRn protein) was 1.97e+06 M⁻¹ s⁻¹ and the OD value (human Activin A protein) was 0.0595 OD 450 nm-620 nm. The OD value (human GDF1 protein) was 0.201 OD 450 nm-620 nm.
